The source of these data is patent publication US20100150834A1, “HIGH AFFINITY EPHB RECEPTOR BINDING COMPOUNDS AND METHODS OF USE THEREOF” (priority 2006, published 2010).

The target of one test is murine EphB4-Fc (murine) (UniProt P54761). The test can be described thus: ELISA: murine EphB4-Fc on protein A plates, biotinylated peptide detected with streptavidin-HRP.
Test [1] addresses murine EphB4-Alkaline Phosphatase (murine) (UniProt P54761). Put plainly: competition ELISA: murine EphB4-AP binding to immobilised murine ephrin-B2-Fc. Background: An ELISA detects its analyte on a solid surface through an enzyme-linked reagent.
For test [2] the target is unchanged. Put plainly: ELISA binding curve: TNYL-RAW Fc immobilised, increasing volumes of murine EphB4 AP, OD405; one experiment.

murine EphB4-Fc (murine), sequence (P54761 16-539 limits assumed): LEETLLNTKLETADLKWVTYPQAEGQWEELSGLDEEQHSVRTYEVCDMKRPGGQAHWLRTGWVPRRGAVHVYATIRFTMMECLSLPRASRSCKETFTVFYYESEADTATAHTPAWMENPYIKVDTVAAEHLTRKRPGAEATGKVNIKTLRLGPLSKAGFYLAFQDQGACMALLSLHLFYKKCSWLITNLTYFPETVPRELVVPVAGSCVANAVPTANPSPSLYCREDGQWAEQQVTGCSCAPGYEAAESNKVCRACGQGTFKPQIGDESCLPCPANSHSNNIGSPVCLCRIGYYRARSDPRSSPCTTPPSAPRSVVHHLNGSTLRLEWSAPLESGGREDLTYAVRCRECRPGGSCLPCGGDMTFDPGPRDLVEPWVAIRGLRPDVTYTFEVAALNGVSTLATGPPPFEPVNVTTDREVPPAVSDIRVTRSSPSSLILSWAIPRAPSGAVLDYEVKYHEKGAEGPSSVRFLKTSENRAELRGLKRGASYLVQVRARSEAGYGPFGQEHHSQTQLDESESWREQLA
murine EphB4-Alkaline Phosphatase (murine), sequence (P54761 16-539): as the sequence (P54761 16-539 limits assumed) above

Broadly, the Kd is the free concentration of one partner at which half of the binding sites on the other are occupied at equilibrium, for simple one-to-one binding. The low end stands for a tighter complex, the high end for a looser complex. The IC50 is the point on the concentration scale where inhibition reaches its midpoint. The low end stands for higher potency, the high end for lower potency. In turn, “PEG 10 kDa-linked TNYL-RAW-biotin dimer (peptide)” came in with a Kd in the test with murine EphB4-Fc (murine) of 0.9 nM. The substance also showed an IC50 in test [1] of 9 nM.

Turning to “TNYL-RAW-biotin coupled to monofunctional 10 kDa PEG (monomer) (peptide)”, the Kd with murine EphB4-Fc (murine) was found to be 1.4 nM. In test [1], the IC50 was 21 nM.

In turn, TNYL-RAW Fc fusion protein returned a Kd in test [2] of 10 nM.

With “PEG 3.4 kDa-linked TNYL-RAW-biotin dimer (peptide)”, the Kd in the test with murine EphB4-Fc (murine) was found to be 0.9 nM. In test [1], this substance gave an IC50 of 7 nM.
